Test results taken from publication PMC9221696.

B1: wild-type Fas receptor (Fas/CD95) tagged with mCerulean3 or mVenus [human] / itself (parent)
chain: QVTDINSKGLELRKTVTTVETQNLEGLHHDGQFCHKPCPPGERKARDCTVNGDEPDCVPCQEGKEYTDKAHFSSKCRRCRLCDEGHGLEVEINCTRTQNTKCRCKPNFFCNSTVCEHCDPCTKCEHGIIKECTLTSNTKCKEEGSRSNLGWLCLLLLPIPLIVWVKRKEVQKTCRKHRKENQGSHESPTLNPETVAINLSDVDLSKYITTIAGVMTLSQVKGFVRKNGVNEAKIDEIKNDNVQDTAEQKVQLLRNWHQLHGKKEAYDTLIKDLKKANLCTLAEKIQTIILKDITSDSENSNFRNEIQSLV

Variants of: B1
Experiment: flow-cytometric FRET (mCerulean3/mVenus) in live cells
Conditions: with itself, RapoC2 (Fas-deficient Jurkat) cells, 24 h post-transfection, read off a plot

| Variant | screen value (FasL-LZ 5 min, parent: 1.5) | screen value (FasL-LZ 15 min, parent: 1.9) | screen value (FasL-LZ 30 min, parent: 2) | screen value (FasL-LZ 60 min, parent: 1.9) | screen value (FasL-LZ 120 min, parent: 1.9) |
| --- | --- | --- | --- | --- | --- |
| QVTDINSKGLELRKTVTTVETQNLEGLHHDGQFCHKPCPPGERKARDCTVNGDEPDCVPCQEGKEYTDKAHFSSKCRRCRLCDEGHGLEVEINCTRTQNTKCRCKPNFFCNSTVCEHCDPCTKCEHGIIKECTLTSNTKCKEEGSRSNLGWLCLLLLPIPLIVWVKRKEVQKTCRKHRKENQGSHESPTLNPETVAINLSDVDLSKYITTIAGVMTLSQVKGFVRKNGVNEDKIDEIKNDNVQDTAEQKVQLLRNWHQLHGKKEAYDTLIKDLKKANLCTLAEKIQTIILKDITSDSENSNFRNEIQSLV [chain 1 A232D] | 1.3 | 1.5 | 1.6 | 1.6 | 1.6 |
| QVTDINSKGLELRKTVTTVETQNLEGLHHDGQFCHKPCPPGERKARDCTVNGDEPDCVPCQEGKEYTDKAHFSSKCRRCRLCDEGHGLEVEINCTRTQNTKCRCKPNFFCNSTVCEHCDPCTKCEHGIIKECTLTSNTKCKEEGSRSNLGWLCLLLLPIPLIVWVKRKEVQKTVRKHRKENQGSHESPTLNPETVAINLSDVDLSKYITTIAGVMTLSQVKGFVRKNGVNEAKIDEIKNDNVQDTAEQKVQLLRNWHQLHGKKEAYDTLIKDLKKANLCTLAEKIQTIILKDITSDSENSNFRNEIQSLV [chain 1 C174V] | 1.5 | 1.9 | 2.1 | – | – |
| QVTDINSKGLELRKTVTTVETQNLEGLHHDGQFCHKPCPPGERKARDCTVNGDEPDCVPCQEGKEYTDKAHFSSKCRRCRLCDEGHGLEVEINCTRTQNTKCRCKPNFFCNSTVCEHCDPCTKCEHGIIKECTLTSNTKCKEEGSRSNLGWLCLLLLPIPLIVWVKRKEVQKTCRKHRKENQGSHESPTLNPETVAINLSDVDLSKYITTIAGVMTLSQVKGFVRKNGVNEAKIDKIKNDNVQDTAEQKVQLLRNWHQLHGKKEAYDTLIKDLKKANLCTLAEKIQTIILKDITSDSENSNFRNEIQSLV [chain 1 E236K] | 1.3 | 1.5 | 1.6 | 1.6 | 1.6 |
